The numbers were not newly measured in publication PMC9598996, which cites them from elsewhere.

In data set [1] the target is Cys95 (UniProt position 595, LTQIGCTLNFP). The note with it: native (folded) enzyme, cysteines reduced.
Data set [2] concerns the target Cys67 (UniProt position 567, ILIEICGHKAI). The note with it: native (folded) enzyme, cysteines reduced.

Turning to “HIV-1 protease (retropepsin) (Human immunodeficiency virus type 1)”, the pKa entry in data set [1] and in data set [2] was “about 6” each time.
